Results from doi:10.1101/2023.04.21.537819, “DNA damage-induced interaction between a lineage addiction oncogenic transcription factor and the MRN complex shapes a tissue-specific DNA Damage Response and cancer predisposition” (bioRxiv, 2023).

Biological target: T1, mCherry-LacR-MITF (human, UniProt O75030-9 1-419)
T1 construct: MITF, human; In the self-association test the second copy was MITF-GFP (pEGFP-C1-MITF, Ngeow et al. 2018) in place of mCherry-LacR; also called LacR-mCherry-MITF; MITF WT; source: U2OS-LacO#13 cells, transfected, in cells; not shown: mCherry-LacR, N-terminal, kept
T1 sequence (looked up): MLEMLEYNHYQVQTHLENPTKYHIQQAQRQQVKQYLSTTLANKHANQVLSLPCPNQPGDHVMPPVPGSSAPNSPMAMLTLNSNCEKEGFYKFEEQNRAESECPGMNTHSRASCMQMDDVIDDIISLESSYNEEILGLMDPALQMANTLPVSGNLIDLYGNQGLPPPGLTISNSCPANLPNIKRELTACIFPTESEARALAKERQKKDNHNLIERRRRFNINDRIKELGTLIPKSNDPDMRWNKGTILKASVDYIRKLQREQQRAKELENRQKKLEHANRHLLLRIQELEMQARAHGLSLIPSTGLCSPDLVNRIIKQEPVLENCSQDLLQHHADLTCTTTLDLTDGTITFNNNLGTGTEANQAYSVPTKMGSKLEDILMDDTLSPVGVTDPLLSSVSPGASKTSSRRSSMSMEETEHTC
Assay: LacR/LacO nuclear tethering assay; U2OS-LacO#13 cells transfected 24 h with an mCherry-LacR bait (tethered at the LacO array) and a GFP-tagged prey; fixed, confocal microscopy; ratio of GFP fluorescence inside the mCherry dot to the rest of the nucleus
Settings: partners not purified

B1: NBS1-GFP (natural protein, UniProt O60934 1-754, looked up)
chain: MWKLLPAAGPAGGEPYRLLTGVEYVVGRKNCAILIENDQSISRNHAVLTANFSVTNLSQTDEIPVLTLKDNSKYGTFVNEEKMQNGFSRTLKSGDGITFGVFGSKFRIEYEPLVACSSCLDVSGKTALNQAILQLGGFTVNNWTEECTHLVMVSVKVTIKTICALICGRPIVKPEYFTEFLKAVESKKQPPQIESFYPPLDEPSIGSKNVDLSGRQERKQIFKGKTFIFLNAKQHKKLSSAVVFGGGEARLITEENEEEHNFFLAPGTCVVDTGITNSQTLIPDCQKKWIQSIMDMLQRQGLRPIPEAEIGLAVIFMTTKNYCDPQGHPSTGLKTTTPGPSLSQGVSVDEKLMPSAPVNTTTYVADTESEQADTWDLSERPKEIKVSKMEQKFRMLSQDAPTVKESCKTSSNNNSMVSNTLAKMRIPNYQLSPTKLPSINKSKDRASQQQQTNSIRNYFQPSTKKRERDEENQEMSSCKSARIETSCSLLEQTQPATPSLWKNKEQHLSENEPVDTNSDNNLFTDTDLKSIVKNSASKSHAAEKLRSNKKREMDDVAIEDEVLEQLFKDTKPELEIDVKVQKQEEDVNVRKRPRMDIETNDTFSDEAVPESSKISQENEIGKKRELKEDSLWSAKEISNNDKLQDDSEMLPKKLLLTEFRSLVIKNSTSRNPSGINDDYGQLKNFKKFKKVTYPGAGKLPHIIGGSDLIAHHARKNTELEEWLRQEMEVQNQHAKEESLADDLFRYNPYLKRRR
notes: NBS1 (nibrin), component of the MRN complex; plasmid pcDNA3.1(+)-C-eGFP-NBS1 from GenScript; also called GFP-NBS1; pcDNA3.1(+)-C-eGFP-NBS1; source: U2OS-LacO#13 cells, transfected, in cells; not shown: eGFP, C-terminal, kept
median enrichment of GFP at the mCherry dot over the rest of the nucleus: 7 fold
